Data reported in US20240254223A1 (NOVIMMUNE, published 2024).

T1: high affinity trimeric IL-2R (IL-2Rα, IL-2Rβ and IL-2Rγ) on HEK-Blue IL-2 cells (UniProt P01589 22-272; P14784 27-551; P31785 23-369)
T1 sequence (looked up) 1: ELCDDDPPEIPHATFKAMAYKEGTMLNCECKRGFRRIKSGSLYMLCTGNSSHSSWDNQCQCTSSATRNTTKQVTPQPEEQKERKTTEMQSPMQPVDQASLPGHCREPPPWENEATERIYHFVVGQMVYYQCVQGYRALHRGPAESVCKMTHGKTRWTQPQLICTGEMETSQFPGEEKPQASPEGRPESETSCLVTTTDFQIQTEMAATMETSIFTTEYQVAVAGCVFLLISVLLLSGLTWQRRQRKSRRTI
T1 sequence (looked up) 2: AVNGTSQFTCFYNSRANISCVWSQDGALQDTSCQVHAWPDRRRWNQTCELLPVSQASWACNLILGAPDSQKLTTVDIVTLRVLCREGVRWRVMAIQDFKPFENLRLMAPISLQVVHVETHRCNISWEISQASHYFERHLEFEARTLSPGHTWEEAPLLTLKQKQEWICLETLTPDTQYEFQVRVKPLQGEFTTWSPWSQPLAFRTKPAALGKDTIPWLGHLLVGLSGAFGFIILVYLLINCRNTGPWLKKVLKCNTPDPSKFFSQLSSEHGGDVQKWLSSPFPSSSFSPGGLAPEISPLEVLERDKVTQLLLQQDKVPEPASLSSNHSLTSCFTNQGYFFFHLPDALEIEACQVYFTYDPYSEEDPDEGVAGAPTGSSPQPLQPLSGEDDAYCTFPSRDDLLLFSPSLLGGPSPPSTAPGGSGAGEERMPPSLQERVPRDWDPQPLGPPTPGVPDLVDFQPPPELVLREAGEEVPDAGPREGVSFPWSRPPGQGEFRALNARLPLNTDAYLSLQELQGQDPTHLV
T1 sequence (looked up) 3: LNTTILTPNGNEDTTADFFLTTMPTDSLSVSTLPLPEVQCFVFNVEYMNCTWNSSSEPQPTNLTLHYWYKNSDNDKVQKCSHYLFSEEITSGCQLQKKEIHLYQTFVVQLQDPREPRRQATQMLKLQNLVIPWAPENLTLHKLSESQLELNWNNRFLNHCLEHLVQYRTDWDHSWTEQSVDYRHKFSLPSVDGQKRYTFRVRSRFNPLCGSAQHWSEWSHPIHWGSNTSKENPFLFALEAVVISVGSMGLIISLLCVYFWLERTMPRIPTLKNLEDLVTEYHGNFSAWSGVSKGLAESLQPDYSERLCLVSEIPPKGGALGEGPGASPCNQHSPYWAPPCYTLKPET

T2: low-moderate affinity dimeric IL-2R (IL-2Rβ and IL-2Rγ) on HEK-Blue CD122/CD132 cells (UniProt P14784 27-551; P31785 23-369, limits assumed)
T2 sequence (looked up) 1: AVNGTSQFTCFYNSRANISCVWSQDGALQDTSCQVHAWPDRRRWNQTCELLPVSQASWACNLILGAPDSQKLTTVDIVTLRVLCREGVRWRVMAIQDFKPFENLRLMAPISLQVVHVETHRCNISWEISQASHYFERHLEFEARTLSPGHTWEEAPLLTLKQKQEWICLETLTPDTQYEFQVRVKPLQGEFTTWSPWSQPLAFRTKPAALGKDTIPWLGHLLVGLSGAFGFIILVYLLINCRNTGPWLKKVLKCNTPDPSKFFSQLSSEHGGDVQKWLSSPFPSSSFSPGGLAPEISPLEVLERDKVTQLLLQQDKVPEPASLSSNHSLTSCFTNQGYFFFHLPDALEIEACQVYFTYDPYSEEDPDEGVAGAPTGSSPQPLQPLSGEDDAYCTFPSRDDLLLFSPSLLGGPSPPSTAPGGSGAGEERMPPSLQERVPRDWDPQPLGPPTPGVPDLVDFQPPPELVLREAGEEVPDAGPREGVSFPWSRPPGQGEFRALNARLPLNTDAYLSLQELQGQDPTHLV
T2 sequence (looked up) 2: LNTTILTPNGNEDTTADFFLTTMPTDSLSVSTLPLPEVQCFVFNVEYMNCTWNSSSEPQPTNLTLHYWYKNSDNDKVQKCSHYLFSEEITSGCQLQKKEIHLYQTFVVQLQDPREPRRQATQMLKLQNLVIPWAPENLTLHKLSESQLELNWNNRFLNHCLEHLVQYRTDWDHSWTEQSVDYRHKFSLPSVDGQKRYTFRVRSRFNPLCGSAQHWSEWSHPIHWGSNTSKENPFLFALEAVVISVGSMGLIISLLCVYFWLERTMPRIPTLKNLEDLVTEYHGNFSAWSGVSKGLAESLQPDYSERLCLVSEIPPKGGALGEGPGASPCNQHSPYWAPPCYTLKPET


Legend:
[1] = biological target: T1, high affinity trimeric IL-2R (IL-2Rα, …); test: cell-based or functional assay
[2] = biological target: T2, low-moderate affinity dimeric IL-2R …; test: cell-based or functional assay
[3] = biological target: T3, CD47 at the surface of Peak cells (human, UniProt Q08722 19-323); test: flow cytometry, Peak cells, after MMP-9 treatment
T3 construct: whole, on cells; also called cell surface CD47
Description: Binding activity of antibody-cytokine/receptor fusions before and after cleavage was also evaluated by flow cytometry. Peak cells derived from HEK 293 which are human cells expressing CD47 were used to evaluate masking efficacy and binding recovery to CD47 by flow cytometry. Peak cells were diluted in cold FACS buffer (PBS, 2% BSA) to 1.2×10⁶ cells/mL. 3×10⁵ cells/well were added in a 96 well V-bottom plate. The plate was then centrifugated for 5 min at 1300 rpm, 4° C. Supernatants were removed and cells were washed twice using FACS buffer. A serial dilution of antibody-cytokine/receptor fusions previously digested with MMP-9 or not digested as described above was prepared in FACS buffer. An irrelevant antibody was included. Then, 150 μL of each diluted antibody were added in corresponding well and incubated for 30 min at 4° C. Cells were washed twice with FACS buffer and 100 μL of a mouse anti human Fc-PE conjugated secondary antibody were added and the plate was incubated for 20 min at 4° C. Cells were then washed twice with FACS buffer. Finally, 150 μL of SYTOX blue dead cell stain (ThermoFisher) diluted to 1/5000 in FACS buffer were added before detection by flow cytometry with Cytoflex (Beckman Coulter). Acquisition was performed with 10000 events for each well. Data were analyzed by FlowJo software.

His-tagged human CD47 [4] = biological target: T4, His-tagged human CD47 (human, UniProt Q08722 19-139, limits assumed); test: BLI, His-CD47 on HIS1K sensor, after MMP-9 treatment
T4 construct: loaded on HIS1K biosensors at 2.5 µg/mL; also called target antigen; not shown: His tag
Description: (§1) The capacity of the masking domains to inhibit binding activity of the antibody was evaluated by Bio-Layer Interferometry (BLI). […] Binding experiments were performed to evaluate the masking efficiency and the binding recovery after cleavage of the masking domains. BLI was performed on an Octet RED96 system (Sartorius). His-tagged human CD47 was diluted at 2.5 μg/mL in Kinetic Buffer (KB) (Sartorius) and loaded on HIS1K biosensors (anti-His tag antibody biosensors, Sartorius) for 300 seconds. Loaded biosensors were dipped into antibodies diluted at 15 μg/mL in KB for 300 seconds to monitor association. Then, biosensors were transferred in KB for dissociation for 60 seconds. Binding profiles were then analyzed with ForteBio Data Analysis software.

His-tagged human CD47 [5] = biological target: T4, His-tagged human CD47; test: BLI, His-CD47 on HIS1K sensor, antibody 15 µg/mL
Description: as §1

EC50 after cleavage IL-2, HEK Blue IL-2 αβγ reporter assay [1] [nM]	EC50 after cleavage IL-2, HEK Blue IL-2 βγ reporter assay [2] [nM]	EC50 [3] [nM]	Binding after cleavage (BLI) (His-tagged human CD47 [4]) [nm]	Binding before cleavage (BLI) (His-tagged human CD47 [5]) [nm]	Binder
0.02	0.01	1	1.7		Construct No 780 after cleavage by MMP-9 (antibody, MMP-9 digest of m29; the sample also holds the released IL-2Rα, IL-2 F42A and IL-2Rβ; also called n780 after cleavage; not shown: remnant of CM1 and linker after MMP-9 cleavage) light: DIQMTQSPSSLSASVGDRVTITCNVDQVIANWLNWYQQKPGKAPKLLIYAASSLQSGVPSRFSGSGSGTDFTLTISSLQPEDFATYYCQQMHPRAPKQFGQGTKVEIKRTVAAPSVFIFPPSDEQLKSGTASVVCLLNNFYPREAKVQWKVDNALQSGNSQESVTEQDSKDSTYSLSSTLTLSKADYEKHKVYACEVTHQGLSSPVTKSFNRGEC heavy: not shown
0.04	0.07	1.6	1.4		Construct No 790 after cleavage by MMP-9 (antibody, MMP-9 digest of m30; the sample also holds the released IL-2Rα, IL-2 D20T and IL-2Rβ; also called n790 after cleavage; not shown: remnant of CM1 and linker after MMP-9 cleavage) light: DIQMTQSPSSLSASVGDRVTITCNVDQVIANWLNWYQQKPGKAPKLLIYAASSLQSGVPSRFSGSGSGTDFTLTISSLQPEDFATYYCQQMHPRAPKQFGQGTKVEIKRTVAAPSVFIFPPSDEQLKSGTASVVCLLNNFYPREAKVQWKVDNALQSGNSQESVTEQDSKDSTYSLSSTLTLSKADYEKHKVYACEVTHQGLSSPVTKSFNRGEC heavy: not shown
0.04	0.02	2.6	1.1		Construct No 880 after cleavage by MMP-9 (antibody, MMP-9 digest of m34; the sample also holds the released IL-2Rγ-(GGGGS)2-IL-2 fusion (no cleavable linker between the two) and IL-2Rα; also called n880 after cleavage; not shown: remnant of CM1 and linker after MMP-9 cleavage) light: DIQMTQSPSSLSASVGDRVTITCNVDQVIANWLNWYQQKPGKAPKLLIYAASSLQSGVPSRFSGSGSGTDFTLTISSLQPEDFATYYCQQMHPRAPKQFGQGTKVEIKRTVAAPSVFIFPPSDEQLKSGTASVVCLLNNFYPREAKVQWKVDNALQSGNSQESVTEQDSKDSTYSLSSTLTLSKADYEKHKVYACEVTHQGLSSPVTKSFNRGEC heavy: not shown
0.48	1.14	1.5	1.5		Construct No 800 after cleavage by MMP-9 (antibody, MMP-9 digest of m31; the sample also holds the released IL-2Rα, IL-2 Q126T and IL-2Rβ; also called n800 after cleavage; not shown: remnant of CM1 and linker after MMP-9 cleavage) light: DIQMTQSPSSLSASVGDRVTITCNVDQVIANWLNWYQQKPGKAPKLLIYAASSLQSGVPSRFSGSGSGTDFTLTISSLQPEDFATYYCQQMHPRAPKQFGQGTKVEIKRTVAAPSVFIFPPSDEQLKSGTASVVCLLNNFYPREAKVQWKVDNALQSGNSQESVTEQDSKDSTYSLSSTLTLSKADYEKHKVYACEVTHQGLSSPVTKSFNRGEC heavy: not shown
0.01	0.01		1.7		Construct No 830 after cleavage by MMP-9 (antibody, MMP-9 digest of m27 (K33); the sample also holds the released IL-2Rα, IL-2 and IL-2Rβ; also called n830 after cleavage; not shown: remnant of CM1 and linker after MMP-9 cleavage) light: DIQMTQSPSSLSASVGDRVTITCRASQSISSYLNWYQQKPGKAPKLLIYAASSLQSGVPSRFSGSGSGTDFTLTISSLQPEDFATYYCQQFHKRSPQKFGQGTKVEIKRTVAAPSVFIFPPSDEQLKSGTASVVCLLNNFYPREAKVQWKVDNALQSGNSQESVTEQDSKDSTYSLSSTLTLSKADYEKHKVYACEVTHQGLSSPVTKSFNRGEC heavy: not shown
				1.3	pNOVI V2K K33 (antibody, human IgG1, kappa, also called n22; construct No 22) light: DIQMTQSPSSLSASVGDRVTITCRASQSISSYLNWYQQKPGKAPKLLIYAASSLQSGVPSRFSGSGSGTDFTLTISSLQPEDFATYYCQQFHKRSPQKFGQGTKVEIKRTVAAPSVFIFPPSDEQLKSGTASVVCLLNNFYPREAKVQWKVDNALQSGNSQESVTEQDSKDSTYSLSSTLTLSKADYEKHKVYACEVTHQGLSSPVTKSFNRGEC heavy: not shown
